Numbering of substitutions follows the chain as printed.
B1: Recombinant type immunoglobulin κ chain binding protein KBP0 (protein)
chain: KETPETPEEPKEEVTIKVNLIFADGKTQTATFKGTFEEATAEAYRYADLLAKVNGEYTADLEDGGYTINIKFAGKKETPETPEEPKEEVTIKVNLIFADGKTQTATFKGTFEEATAEAYRYADLLAKVNGEYTADLEDGGYTINIKFAGKKETPETPEEPKEEVTIKVNLIFADGKTQTATFKGTFEEATAEAYRYADLLAKVNGEYTADLEDGGYTINIKFAGKKETPETPEEPKEEVTIKVNLIFADGKTQTATFKGTFEEATAEAYRYADLLAKVNGEYTADLEDGGYTINIKFAGK
B2: Recombinant immunoglobulin κ chain binding protein KBP4 (protein)
chain: B1 chain with Y44F, Y119F, Y194F, Y269F
B3: Recombinant immunoglobulin κ chain binding protein KBP5 (protein)
chain: B1 chain with N54Q, N129Q, N204Q, N279Q
B4: Recombinant immunoglobulin κ chain binding protein KBP6 (protein, part only; not given: further domain copies and linkers, part only)
chain, part: KETPETPEEPKEEVTIKVNLIFADGKTQTATFKGTFEEATAEAYRYADLLAKVNAGEYTADLEDGGYTINIKFAGK
B5: Recombinant immunoglobulin κ chain binding protein KBP7 (protein, part only; not given: further domain copies and linkers, part only)
chain, part: B4 chain, part with A55Y
B6: Recombinant immunoglobulin κ chain binding protein KBP8 (protein, part only; not given: further domain copies and linkers, part only)
chain, part: KETETPEEPKEEVTIKVNLIFADGKTQTATFKGTFEEATAEAYRYADLLAKVNGEYTADLEDGGYTINIKFAGK
B7: Recombinant immunoglobulin κ chain binding protein KBP9 (protein, part only; not given: further domain copies and linkers, part only)
chain, part: KETETEEPKEEVTIKVNLIFADGKTQTATFKGTFEEATAEAYRYADLLAKVNGEYTADLEDGGYTINIKFAGK
B8: Recombinant immunoglobulin κ chain binding protein KBP1 (protein)
chain: B1 chain with K17R, K92R, K167R, K242R
B9: Recombinant immunoglobulin κ chain binding protein KBP2 (protein)
chain: B1 chain with K26R, K101R, K176R, K251R
B10: Recombinant immunoglobulin κ chain binding protein KBP3 (protein)
chain: B1 chain with T35R, T110R, T185R, T260R

Target: Fab
Assay: static binding capacity: Fab incubated with ligand-immobilized porous particles, eluted at pH 2.5, absorbance

**Q.** How did the SBC without alkali treatment (mg/mL-particles) turn out when B1 was run?
**A.** The SBC without alkali treatment (mg/mL-particles) was 60.

**Q.** B2 was tested. Which SBC without alkali treatment (mg/mL-particles) did it give?
**A.** The SBC without alkali treatment (mg/mL-particles) was 47.

**Q.** With B3 as the binder, how does the SBC without alkali treatment (mg/mL-particles) read?
**A.** The SBC without alkali treatment (mg/mL-particles) was 63.

**Q.** For B4, which SBC without alkali treatment (mg/mL-particles) is on record?
**A.** Its SBC without alkali treatment (mg/mL-particles) is 61.

**Q.** How did the SBC without alkali treatment (mg/mL-particles) turn out when B5 was run?
**A.** Its SBC without alkali treatment (mg/mL-particles) is 64.

**Q.** Which SBC without alkali treatment (mg/mL-particles) does the source give for B6 here?
**A.** The SBC without alkali treatment (mg/mL-particles) was 60.

**Q.** B7 was tested. Which SBC without alkali treatment (mg/mL-particles) did it give?
**A.** Its SBC without alkali treatment (mg/mL-particles) is 60.

**Q.** B8 was tested. Which SBC without alkali treatment (mg/mL-particles) did it give?
**A.** The SBC without alkali treatment (mg/mL-particles) was 56.

**Q.** For B9, which SBC without alkali treatment (mg/mL-particles) is on record?
**A.** The SBC without alkali treatment (mg/mL-particles) was 59.

**Q.** For B10, which SBC without alkali treatment (mg/mL-particles) is on record?
**A.** Its SBC without alkali treatment (mg/mL-particles) is 58.

Target: Fab
Assay: static binding capacity for Fab after 0.1 M NaOH for 24 h, relative to SBC of the same particles without alkali treatment

**Q.** How did the SBC retention ratio (%) after alkali treatment turn out when B1 was run?
**A.** The SBC retention ratio (%) after alkali treatment was 39%.

**Q.** How did the SBC retention ratio (%) after alkali treatment turn out when B2 was run?
**A.** The SBC retention ratio (%) after alkali treatment was 49%.

**Q.** B3 was tested. Which SBC retention ratio (%) after alkali treatment did it give?
**A.** Its SBC retention ratio (%) after alkali treatment is 51%.

**Q.** Which SBC retention ratio (%) after alkali treatment does the source give for B4 here?
**A.** The SBC retention ratio (%) after alkali treatment was 58%.

**Q.** Which SBC retention ratio (%) after alkali treatment does the source give for B5 here?
**A.** The SBC retention ratio (%) after alkali treatment was 73%.

**Q.** B6 was tested. Which SBC retention ratio (%) after alkali treatment did it give?
**A.** Its SBC retention ratio (%) after alkali treatment is 45%.

**Q.** How did the SBC retention ratio (%) after alkali treatment turn out when B7 was run?
**A.** Its SBC retention ratio (%) after alkali treatment is 42%.

**Q.** With B8 as the binder, how does the SBC retention ratio (%) after alkali treatment read?
**A.** The SBC retention ratio (%) after alkali treatment was 46%.

**Q.** How did the SBC retention ratio (%) after alkali treatment turn out when B9 was run?
**A.** Its SBC retention ratio (%) after alkali treatment is 46%.

**Q.** How did the SBC retention ratio (%) after alkali treatment turn out when B10 was run?
**A.** The SBC retention ratio (%) after alkali treatment was 48%.
